Experiment [1] has as its target Schizosaccharomyces pombe Ccr4–Not complex with an FITC label on the Not9 subunit (S. pombe) (UniProt P87112). As to the kind of experiment: fluorescence polarisation; fluorescence anisotropy; Puf3 constructs titrated into 25 nM Ccr4–Not with FITC on Not9; 20 mM HEPES pH 8, 100 mM NaCl, 0.5 mM TCEP; quadratic fit; apparent KD. For orientation: In fluorescence polarisation assays a small probe gives low polarisation when free and higher when bound to something large.

The target in experiment [2] is recombinant full-length H. sapiens CCR4–NOT deadenylase complex (human).
Experiment [3] shares this target. This is another data set of the same source.
For experiment [4], the target named is Schizosaccharomyces pombe Ccr4–Not complex with an FITC label on the Not9 subunit (S. pombe, UniProt P87112 1-2100; P87240 1-306; O13870 1-640; Q92368 1-283; O74874 1-690; O74856 …, fluorescein (FITC label) from a CoA–fluorescein conjugate on the YbbR tag at the N terminus). As to the kind of experiment: FP; apparent.
Experiment [5] has as its target Schizosaccharomyces pombe Ccr4–Not complex, full-length, unlabeled (Not1, Not2, Not3, Not4, Not9, Ccr4, Caf1) (S. pombe) (UniProt P87112).

The text below walks through data of article PMC12819147 (2025).

Some results are limits rather than exact numbers.

Turning to “Puf3 variant with residues 53–68 and 217–232 both replaced with a GSN linker (from UniProt O94462 1-52; O94462 69-216; O94462 233-732) (natural protein)”, in experiment [1], the Kd stood at 10000 nM.

On to “PUM1^Δ587 (from UniProt Q14671 588-1186) (domain or fragment)”, for which the fold decrease in stimulation of deadenylation by human CCR4–NOT (in vitro targeted deadenylation assay) in experiment [2] was 4 fold. Moreover, in experiment [3], the stimulation of removal of the poly(A) tail by human CCR4–NOT was 10 fold.

B1: MBP-tagged full-length S. pombe Puf3 (natural protein)
chain: MFTAVNSNPNASESISGNSAFNFPSAPVSSLDTNNYGQRRPSLLSGTSPTSSFFNSSMISSNYTFPHGSNKQASLESPVSYSNPIPSLTWLSLDGDSPDSLVSTPTAPSANHHGNPFPNGKQSIKAMPSLVNLQEDSVISKFPNSLEVPFRKRSESTSSSLSGLHSDLRPLKTELYGQLNSECGARFPQTLKSPLTPIGGDSARTVSASTARTSDKFFPRHTRAHSDFWIPATSKPSRHASHSSIGDLTTITQSSISSGSGSFKPSWDGSFDSSLMAHQSYGTSPAFANGNSPTLKNDSSFFGSASVRPTVSPIGTSFRQSLPDISAFGIPKTETNPSEVVAPGTIPISVLPTSNFSAATPANPSLINQNGQEFLQQSRVLYLFHANKQRHFELSDILGNVVLFSTDQHGSRFIQQKLATATEEEREAVFQEIASTSCLQLMMDIFGNYVVQKYFEFGNEKQKQILLSQIKGHVFSLSLQMYGCRVVQKAIEYISPEHQVQLIQELDGHVLDCVCDQNGNHVIQKAIECIDTGHLQFILRALRPQIHVLSAHPYGCRVIQRAIEHCHSERKLIIEELLPHILKLTQDQYGNYVVQHILRTGSESDKKYIFDLMIDHLLFLSCHKFASNVVERCISYISDVDRRRILNKIISEKAENCSILMLMMKDKYANYVIQKLLDASPEEERDLLISYIYPHISVLKKFTYGKHLIMSVERFRQKSISAVPKLASKECK
On to B1, for which the Kd in experiment [4] came out at 160 nM; in experiment [1] it was 100 nM.

B2: Puf3 residues 109–258, GST–lipoyl tag fusion with no PUM domain (domain or fragment)
chain: SANHHGNPFPNGKQSIKAMPSLVNLQEDSVISKFPNSLEVPFRKRSESTSSSLSGLHSDLRPLKTELYGQLNSECGARFPQTLKSPLTPIGGDSARTVSASTARTSDKFFPRHTRAHSDFWIPATSKPSRHASHSSIGDLTTITQSSISS
Consider B2, for which the Kd in experiment [1] was 800 nM.

B3: Puf3 variant with residues 53–68 replaced with a GSN linker (natural protein)
chain: MFTAVNSNPNASESISGNSAFNFPSAPVSSLDTNNYGQRRPSLLSGTSPTSSSNKQASLESPVSYSNPIPSLTWLSLDGDSPDSLVSTPTAPSANHHGNPFPNGKQSIKAMPSLVNLQEDSVISKFPNSLEVPFRKRSESTSSSLSGLHSDLRPLKTELYGQLNSECGARFPQTLKSPLTPIGGDSARTVSASTARTSDKFFPRHTRAHSDFWIPATSKPSRHASHSSIGDLTTITQSSISSGSGSFKPSWDGSFDSSLMAHQSYGTSPAFANGNSPTLKNDSSFFGSASVRPTVSPIGTSFRQSLPDISAFGIPKTETNPSEVVAPGTIPISVLPTSNFSAATPANPSLINQNGQEFLQQSRVLYLFHANKQRHFELSDILGNVVLFSTDQHGSRFIQQKLATATEEEREAVFQEIASTSCLQLMMDIFGNYVVQKYFEFGNEKQKQILLSQIKGHVFSLSLQMYGCRVVQKAIEYISPEHQVQLIQELDGHVLDCVCDQNGNHVIQKAIECIDTGHLQFILRALRPQIHVLSAHPYGCRVIQRAIEHCHSERKLIIEELLPHILKLTQDQYGNYVVQHILRTGSESDKKYIFDLMIDHLLFLSCHKFASNVVERCISYISDVDRRRILNKIISEKAENCSILMLMMKDKYANYVIQKLLDASPEEERDLLISYIYPHISVLKKFTYGKHLIMSVERFRQKSISAVPKLASKECK
With B3, the Kd in experiment [4] came out at 290 nM. Further, the fold decrease in stimulation of Ccr4–Not-mediated deadenylation (in vitro targeted deadenylation assay, t1/2) in experiment [5] was 2 fold.

B4: Puf3 construct spanning residues 109–208 (anisotropy) (domain or fragment)
chain: SANHHGNPFPNGKQSIKAMPSLVNLQEDSVISKFPNSLEVPFRKRSESTSSSLSGLHSDLRPLKTELYGQLNSECGARFPQTLKSPLTPIGGDSARTVSA
Consider B4, for which the results for the Kd in experiment [4] and in experiment [1] were > 40000 nM and > 50000 nM, respectively.

B5: 1-158 (protein)
chain: MFTAVNSNPNASESISGNSAFNFPSAPVSSLDTNNYGQRRPSLLSGTSPTSSFFNSSMISSNYTFPHGSNKQASLESPVSYSNPIPSLTWLSLDGDSPDSLVSTPTAPSANHHGNPFPNGKQSIKAMPSLVNLQEDSVISKFPNSLEVPFRKRSESTSQSRVLYLFHANKQRHFELSDILGNVVLFSTDQHGSRFIQQKLATATEEEREAVFQEIASTSCLQLMMDIFGNYVVQKYFEFGNEKQKQILLSQIKGHVFSLSLQMYGCRVVQKAIEYISPEHQVQLIQELDGHVLDCVCDQNGNHVIQKAIECIDTGHLQFILRALRPQIHVLSAHPYGCRVIQRAIEHCHSERKLIIEELLPHILKLTQDQYGNYVVQHILRTGSESDKKYIFDLMIDHLLFLSCHKFASNVVERCISYISDVDRRRILNKIISEKAENCSILMLMMKDKYANYVIQKLLDASPEEERDLLISYIYPHISVLKKFTYGKHLIMSVERFRQKSISAVPKLASKECK
For B5, the Kd in experiment [4] is ~10000 nM.

B6: Puf3 residues 158–258, GST–lipoyl tag fusion with no PUM domain (domain or fragment)
chain: SSSLSGLHSDLRPLKTELYGQLNSECGARFPQTLKSPLTPIGGDSARTVSASTARTSDKFFPRHTRAHSDFWIPATSKPSRHASHSSIGDLTTITQSSISS
For B6, in experiment [1], the Kd was found to be 7000 nM.

B7: Puf3 variant with residues 217–232 replaced with a GSN linker (natural protein)
chain: MFTAVNSNPNASESISGNSAFNFPSAPVSSLDTNNYGQRRPSLLSGTSPTSSFFNSSMISSNYTFPHGSNKQASLESPVSYSNPIPSLTWLSLDGDSPDSLVSTPTAPSANHHGNPFPNGKQSIKAMPSLVNLQEDSVISKFPNSLEVPFRKRSESTSSSLSGLHSDLRPLKTELYGQLNSECGARFPQTLKSPLTPIGGDSARTVSASTARTSDKTSKPSRHASHSSIGDLTTITQSSISSGSGSFKPSWDGSFDSSLMAHQSYGTSPAFANGNSPTLKNDSSFFGSASVRPTVSPIGTSFRQSLPDISAFGIPKTETNPSEVVAPGTIPISVLPTSNFSAATPANPSLINQNGQEFLQQSRVLYLFHANKQRHFELSDILGNVVLFSTDQHGSRFIQQKLATATEEEREAVFQEIASTSCLQLMMDIFGNYVVQKYFEFGNEKQKQILLSQIKGHVFSLSLQMYGCRVVQKAIEYISPEHQVQLIQELDGHVLDCVCDQNGNHVIQKAIECIDTGHLQFILRALRPQIHVLSAHPYGCRVIQRAIEHCHSERKLIIEELLPHILKLTQDQYGNYVVQHILRTGSESDKKYIFDLMIDHLLFLSCHKFASNVVERCISYISDVDRRRILNKIISEKAENCSILMLMMKDKYANYVIQKLLDASPEEERDLLISYIYPHISVLKKFTYGKHLIMSVERFRQKSISAVPKLASKECK
B7: the Kd in experiment [4] came to 420 nM. Also, in experiment [5], the stimulation of Ccr4–Not-mediated deadenylation (in vitro targeted deadenylation assay, t1/2) came out at 2 fold.
